Laboratory results published in patent US20170355777A1 (UNIVERSITY OF LEICESTER, published 2017).

T1: recombinant MLP (rMLP) C-terminal fusion protein: N-terminal histidine tag fused to residues 279-431 of human … (human)
T1 construct: Expressed in E. coli from pRSETB and purified on a nickel column; ran at 28 kDa; also called rMLP C-terminal protein; recombinant MLP C-terminal protein
T1 chain: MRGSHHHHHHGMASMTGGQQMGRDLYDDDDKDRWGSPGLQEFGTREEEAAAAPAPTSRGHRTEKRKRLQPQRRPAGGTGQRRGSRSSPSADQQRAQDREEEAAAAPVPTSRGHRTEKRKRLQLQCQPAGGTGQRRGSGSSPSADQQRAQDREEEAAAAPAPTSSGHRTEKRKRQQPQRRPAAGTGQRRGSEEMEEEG

B1: anti-MLP monoclonal antibody αMLP Clone C (hybridoma ATCC PTA-121701) (antibody, IgG1, V domains shown)
VH: DVKLQESGGGLVQPGGSMKLSCVASGFTFSNYWMNWVRQSPEKGLEWVAEIRLKSNNYAINYAESVKGRFTISRDDSKSSVYLDMNNLRAEDTGIYYCTSYYGSSLYYLDYWGQGTTLTVSS
VL: QIVLTQSPVIMSASPGEKVTISCSASSSVSNMYWYQQKPGSSPKAWIYRTSNLASGVPARFSGSGSGTSYSLTISSMEAEDAATYYCHQYQSYPRTFGAGTKLEIK
notes: also called 2(C); mAb clone C
B2: anti-MLP monoclonal antibody αMLP Clone B (hybridoma ATCC PTA-121700) (antibody, IgG2a, V domains shown)
VH: EVQLQQSGPELVKPGASVKISCKASGYSFTGFYIHWVKQSHVKSLEWIGRIHPYNGAPTYNQNFKDRARLTVHESSSTAYMEFFGLTSEDSAVYYCARERVYYYGSTYEFDFWGQGTTLTVSS
VL: DVLMTQTPLSLPVSLGDQASISCRSGQSIVHSSGVTYLSWYLQKPGQSPKLLIYKVFYRFSGVPDRFSGSGSGTDFTLKISRVEAEDLGVYYCFQGSHVPPTFGTGTKLELK
notes: also called mAb clone B
B3: anti-MLP monoclonal antibody αMLP Clone 11 (hybridoma ATCC PTA-121699) (antibody, IgG2b, V domains shown)
VH: EVQLQQSGPELVKPGASVKISCKASGYAFTGFYIHWMKQSHVKSLEWIGRIHPYNGATSYNQNFKDRASLTVDESSSTAYMEFYGLTSEDSAVYYCARERVYYYGSTYEFDSWGQGTTLTVSS
VL: DVLMTQTPLSLPVSLGDQASISCRSGQSIVHTSGVTYLSWYLQKPGQSPKLLIYKVFYRFSGVPDRFSGSGSGTDFTLKISRVESEDLGVYYCFQGSHVPPTFGAGTKLELK
notes: also called mAb clone 11

Molecular target: T1, recombinant MLP (rMLP) C-terminal …
Assay: KD (binding to rMLP); method not described at the table

B1 and B2 cannot be ordered by Kd: less than 1 nM for the first, less than 1 nM for the second.

B3 was tested, and the Kd was 0.2 nM.
